Measured values from patent US10716830B2, “ERBB4 activator screening assay” (Children's Hospital Los Angeles, priority 2011, dated 2020).

Legend:
[1] = system: colon epithelial cells; test: Cytokine-induced colon epithelial apoptosis in vivo; design: species or system mouse; details: C57Bl/6 mice, NRG4 100 μg/kg i.p., TNF 250 μg/kg plus IFN-γ 250 U/g, 24 h
Procedure: All animal use was approved and monitored by the Children's Hospital Los Angeles Institutional Animal Care and Use Committee. […] Cytokines, growth factors, and inhibitors were given by intraperitoneal injection. 24 h after injections, mice were sacrificed and colons collected either for fixation and embedding or for epithelial lysates. For the latter, colons were incubated in Cell Recovery Solution (BD Biosciences, San Jose, Calif.) for 1 h at 4° C.; crypts were released by vigorous shaking and collected by centrifugation, similar to as previously described (Whitehead, R. H., and Robinson, P. S. (2009) American journal of physiology. Gastrointestinal and liver physiology 296, G455-460). Collected crypts were lysed and processed similar to cultured cells as below. […]
For apoptosis analysis in vivo, mice were injected i.p. with PBS/vehicle, TNF (250 μg/kg) plus IFN-γ (250 units/g), NRG4 (100 μg/kg), or NRG4 plus TNF and IFN-γ. […] Apoptosis was detected by in situ oligo ligation (ISOL; EMD Millipore, Billerica, Mass.) staining for DNA fragmentation on sections of paraffin-embedded tissue, and by cleaved caspase-3 western blot on homogenates.
24 hours after injections, colons were harvested. Apoptosis assessed by Western blot analysis for cleaved caspase-3 on isolated epithelial cells determined that NRG4 blocked cytokine-induced apoptosis in vivo (FIG. 3A, B; 3.6-fold decrease, p=0.012).

[2] = system: COX-2; test: COX-2 expression in YAMC-B4 cells; format: cell-based, mouse; details: 6 h exposure
Procedure: (§1) To identify signaling pathways which could be involved in NRG4-stimulated cell survival, we exposed YAMC-B4 cells to NRG4 or EGF and prepared whole cell lysates for western blot analysis. […] Furthermore, COX-2 expression, which is induced by either HRG-1β or EGF after 6 h exposure, and is required for cell survival induced by ErbB4-EGFR dimers (Frey, M. R., Hilliard, V. C., Mullane, M. T., and Polk, D. B. (2010) Laboratory Investigation 90, 1415-1424), was not induced by NRG4. Thus, NRG4 promotes cell survival through pathways at least partly distinct from those activated by other ligands.

[3] = system: Akt; test: Akt phosphorylation in whole cell lysates by western blot; format: cell-based, mouse; details: YAMC-B4 cells; NRG4 100 ng/ml, 10 min
Text: (§2) Cell lysates were extracted in modified RIPA buffer as previously described (Frey, M. R., Dise, R. S., Edelblum, K. L., and Polk, D. B. (2006) Embo J 25, 5683-5692), cleared by centrifugation, and boiled in Laemmli sample buffer. Samples were separated on SDS-polyacrylamide gels (6-10% as appropriate), blotted on PVDF membranes, and subjected to quantitative immunoblot using the Li-Cor Odyssey infrared detection system. Equal loading was monitored by immunoblots for actin and at least one additional protein.
as §1

[4] = Dextran sodium sulfate-induced acute murine colitis; format: in vivo, mouse; details: C57/BL6 mice, NRG4 100 μg/kg injected daily vs PBS
Procedure: 6-8 week-old male C57/BL6 mice were given 3% DSS in drinking water for 7 days and injected daily with either PBS or NRG4 (100 μg/kg). Weight-loss was monitored over the course of the experiment (FIG. 4D(i)). On day 7, mice were sacrificed; colons were excised, rolled and fixed. H&E sections were scored by a pathologist blind to the experimental conditions using a scoring system adapted from that of Dielman et al. (Dieleman, L. A., et al., Chronic experimental colitis induced by dextran sulphate sodium (DSS) is characterized by Th1 and Th2 cytokines. Clinical and experimental immunology, 1998. 114(3): p. 385-91) (FIG. 4D(ii)).

[5] = system: YAMC-B4 cells; test: Cytokine (TNF plus IFN-γ)-induced apoptosis in cultured colon epithelial cells; format: cell-based, mouse; details: NRG4 100 ng/ml, TNF 100 ng/ml plus IFN-γ 150 U/ml, 6 h, p<0.03
Text: (§3) Conditionally immortalized, non-transformed young adult mouse colon (YAMC) epithelial cells were provided by Dr. Robert Whitehead (Whitehead, R. H., VanEeden, P. E., Noble, M. D., Ataliotis, P., and Jat, P. S. (1993) Proc Natl Acad Sci USA 90, 587-591). These cells express low levels of endogenous ErbB4; YAMC-B4 cells expressing a human ErbB4 construct were generated as previously described (Frey, M. R., Edelblum, K. L., Mullane, M. T., Liang, D., and Polk, D. B. (2009) Gastroenterology 136, 217-226). […]
Cultured mouse colonic epithelial cells expressing ErbB4 (YAMC-B4) cells were exposed to TNF (100 ng/ml) plus interferon (IFN)-γ (150 units/ml), with or without NRG4 (100 ng/ml). After 6 h, the cells were fixed and apoptosis was assessed by immunofluorescence analysis for cleaved caspase-3. When the YAMC-B4 cells were given 100 ng/ml NRG4, cells were protected from apoptosis induced by the 6 h exposure to the cytokine cocktail containing TNF (100 ng/ml) and IFN-γ (150 U/ml), as measured by immunofluorescence analysis for cleaved caspase-3 (FIG. 1B; 2.7-fold decrease with cytokines plus NRG4 vs. cytokines alone, p<0.03).

[6] = system: Akt; test: Akt phosphorylation in colon epithelium of injected mice; format: in vivo, mouse; details: mice injected with NRG4, with or without TNF plus IFN-γ; 24 h
Procedure: All animal use was approved and monitored by the Children's Hospital Los Angeles Institutional Animal Care and Use Committee. […] Cytokines, growth factors, and inhibitors were given by intraperitoneal injection. 24 h after injections, mice were sacrificed and colons collected either for fixation and embedding or for epithelial lysates. For the latter, colons were incubated in Cell Recovery Solution (BD Biosciences, San Jose, Calif.) for 1 h at 4° C.; crypts were released by vigorous shaking and collected by centrifugation, similar to as previously described (Whitehead, R. H., and Robinson, P. S. (2009) American journal of physiology. Gastrointestinal and liver physiology 296, G455-460). Collected crypts were lysed and processed similar to cultured cells as below. For murine colitis, IL-10^−/− mice on C57Bl/6 background were maintained unchallenged until 32-36 weeks of age, at which point knockout mice but not wild-type animals have extensive inflammatory cytokine-driven colitis (Kuhn, R., Lohler, J., Rennick, D., Rajewsky, K., and Muller, W. (1993) Cell 75, 263-274).
Tissues and cells were fixed with 4% paraformaldehyde (Electron Microscopy Sciences, Hatfield, Pa.). […] For immunofluorescence, slides were mounted with Vectashield medium containing DAPI (Vector Laboratories, Burlingame, Calif.). […]

[7] = Experimental necrotizing enterocolitis (NEC) model
[8] = system: EGFR, ErbB2, ErbB3, and ErbB4; test: ErbB receptor phosphorylation by western blot with phospho-specific antibodies; format: cell-based, mouse; details: YAMC-B4 cells (human ErbB4 construct); 10 min; HRG-1β 100 ng/ml, NRG4, EGF 10 ng/ml
Text: as §3, §2
Phosphorylation of EGFR, ErbB2, ErbB3, and ErbB4 was determined by western blot analysis of cell lysates using phospho-specific antibodies. […]

[9] = system: rat intestinal epithelial cells; test: Cronobacter sakazakii-induced apoptosis in cultured intestinal epithelial cells; format: cell-based
Text: NRG4 inhibits CS-induced cell death.

[10] = system: YAMC-B4 cells; test: EdU proliferation assay; format: cell-based, mouse; details: 24 h stimulation
Procedure: (§4) Proliferative index in fixed colon specimens was assessed by immunohistochemical stain for Ki-67. In vitro, cells were exposed to vehicle or growth factors for 24 h, then labeled with 5-ethynyl-2-deoxyuridine (EdU) for 2 h and fixed. Nuclei were marked with DAPI, and incorporated EdU was detected using a Click-iT EdU kit (Invitrogen).
(§5) Most ErbB ligands stimulate multiple cellular processes, including proliferation and migration, in colon epithelial cells (Frey, M. R., Golovin, A., and Polk, D. B. (2004) J Biol Chem 279, 44513-44521). To determine if NRG4 is similarly broad in its cellular effects, we subjected YAMC-B4 cells to proliferation assays in the presence of NRG4. […] In vivo, the number of Ki67-positive nuclei per crypt in PBS vs. NRG4-injected mice was not altered 24 h post-injection (FIG. 4B).

[11] = system: colon crypts; test: Ki-67 proliferative index in colon in vivo; design: species or system mouse; details: 24 h post-injection
Procedure: as §4, §5

[12] = system: YAMC-B4 cells; test: Cell migration/restitution (modified scratch) assay; format: cell-based, mouse; details: 8 h
Procedure: Cells grown on fibronectin-coated plates were subjected to multiple circular wounds with a rotating silicone probe as previously described (Corredor, J., Yan, F., Shen, C. C., Tong, W., John, S. K., Wilson, G., Whitehead, R., and Polk, D. B. (2003) American journal of physiology. Cell physiology 284, C953-961). Cultures were photographed immediately and 8 h after wounding; % closure was determined by measuring wounds in Image.
To test the potential effect of NRG4-ErbB4 signaling on cell motility, we used a modified scratch assay for restitution/migration (Corredor, J., Yan, F., Shen, C. C., Tong, W., John, S. K., Wilson, G., Whitehead, R., and Polk, D. B. (2003) American journal of physiology. Cell physiology 284, C953-961). Over an 8 h period, NRG4 had no effect on the rate at which YAMC-B4 cells moved into the denuded area of a culture plate (FIG. 4C), while in contrast EGF caused a 54% increase in migration over control.

[13] = system: ERK MAPK; test: ERK MAPK phosphorylation in whole cell lysates by western blot; format: cell-based, mouse; details: YAMC-B4 cells; NRG4 100 ng/ml, 10 min
Text: as §2, §1

B1: Neuregulin-4 (protein, UniProt Q8WWG1 1-62, looked up)
extracellular domain: MPTDHEEPCGPSHKSFCLNGGLCYVIPTIPSPFCRCVENYTGARCEEVFLPGSSIQTKSNLF
modifications: ectodomain
notes: ErbB4-specific ligand
[1]; p<0.0001
  decrease in apoptosis, ISOL staining on fixed colon sections: 3.1 fold
[1]; p=0.012
  decrease in cytokine-induced apoptosis, cleaved caspase-3 western blot on isolated epithelial cells: 3.6 fold
[2]
  COX-2 expression: not induced
[3]
  phosphorylation of Akt: resulted in phosphorylation of Akt
[4]; 3% DSS 7 days
  colon shortening: reduces
[4]; 3% DSS 7 days, blinded H&E score
  histologically detectable colonic damage: reduces
[4]; 3% DSS in drinking water 7 days
  weight loss: reduces
[5]
  decrease in apoptosis (cleaved caspase-3 immunofluorescence), cytokines plus NRG4 vs. cytokines alone: 2.7 fold
[6]
  Akt phosphorylation in colon epithelial cells versus controls (western blot, immunofluorescence): increased Akt phosphorylation
[7]; formula feeding/hypoxia model of necrotizing enterocolitis
  protection of the small intestine: protective
[7]; hypoxia/hypothermia model of NEC in rat pups, given by gavage with each feed
  survival of rat pups: survive longer
[8]
  phosphorylation of EGFR, ErbB2, ErbB3, and ErbB4: activated only ErbB4
[9]
  Cronobacter sakazakii induced apoptosis: attenuates
[10]
  cellular uptake of EdU (proliferation) vs. control, in words: not different from control
[11]
  number of Ki67-positive nuclei per crypt, PBS vs. NRG4-injected mice: not altered
[12]
  rate at which cells moved into the denuded area (migration), in words: no effect
[13]
  phosphorylation of ERK MAPK: not ERK MAPK
